Test results reported in the supplement of paper PMC7125110.
± gives the standard error. For some of these results: This sample holds only a part of the variants without activity.

B1: glmS ribozyme (parent)
chain: AUAAAAGCGCCAGAACUACAGAAAUGUAGUUGACGAGGAGGAGGUUUAUCGAAUUUUCGGCGGAUGCCUCCAAA

Experiments:
Conditions in all cases: with glucosamine-6-phosphate
glucosamine-6-phosphate [1] = variants of: B1; assay: kcat; higher = faster cleavage; RNA array
Method in brief: (§1)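 kcat and KM were obtained from weighted Michaelis–Menten fits across concentrations of kobs values. Those came from one- or two-exponential decay fits to per-tile medians normalised to baseline and to non-cleaving reference variants. The variants were barcoded ribozymes transcribed in situ by E. coli RNA polymerase on sequenced MiSeq chips and tracked through a hybridised Cy3 probe at 37 °C, with 40 μM to 10 mM glucosamine-6-phosphate in HEPES/KCl/Mg(OAc)2 buffer flowed in.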

glucosamine-6-phosphate [2] = variants of: B1; assay: self-cleavage kobs at 2500 uM GlcN6P; higher = faster cleavage; RNA array
Method in brief: as §1

glucosamine-6-phosphate [3] = variants of: B1; assay: self-cleavage kobs at 10000 uM GlcN6P; higher = faster cleavage; RNA array
Method in brief: as §1

glucosamine-6-phosphate [4] = variants of: B1; assay: self-cleavage kobs at 40 uM GlcN6P; higher = faster cleavage; RNA array
Method in brief: as §1

glucosamine-6-phosphate [5] = variants of: B1; assay: self-cleavage kobs at 160 uM GlcN6P; higher = faster cleavage; RNA array
Method in brief: as §1

glucosamine-6-phosphate [6] = variants of: B1; assay: self-cleavage kobs at 640 uM GlcN6P; higher = faster cleavage; RNA array
Method in brief: as §1

glucosamine-6-phosphate [7] = variants of: B1; assay: KM; higher = weaker cofactor use; RNA array
Method in brief: as §1

Variant	kcat (glucosamine-6-phosphate [1])	self-cleavage kobs at 2500 uM GlcN6P (glucosamine-6-phosphate [2])	self-cleavage kobs at 10000 uM GlcN6P (glucosamine-6-phosphate [3])	self-cleavage kobs at 40 uM GlcN6P (glucosamine-6-phosphate [4])	self-cleavage kobs at 160 uM GlcN6P (glucosamine-6-phosphate [5])	self-cleavage kobs at 640 uM GlcN6P (glucosamine-6-phosphate [6])	KM (glucosamine-6-phosphate [7])
AUAAAAGCGCCAGAACUACAGAAAUGUAGUUGACGAGGAGGAGGUUUAUCGAUUUUUCGGCGGCUGCCUCCAAA [A53U A64C]	8.67e-05 ± 2.2e-05 s⁻¹	9.3e-05 ± 1.6e-05 s⁻¹	7.17e-05 ± 1.1e-05 s⁻¹				
AUAAAAGCGCCAGUACUACAGAAAUGUAGUUGACGAGGAGGAGGUUUAUCGAAUUAUCGGCGGAUGCCUCCAAA [A14U U56A]	0.00382 ± 0.0017 s⁻¹	0.00186 ± 0.00034 s⁻¹	0.00407 ± 0.00084 s⁻¹	0.000146 ± 3.2e-05 s⁻¹	0.00029 ± 4.9e-05 s⁻¹	0.000692 ± 0.00012 s⁻¹	
AUAAAAGCGCCAGAACUACAGAAAUGUAGUUGACGAGGGGGAGUUUUAUCGAAUUUUCGGCGGAUGCCUCCAAA [A39G G44U]	0.00229 ± 0.0007 s⁻¹	0.000853 ± 0.00022 s⁻¹	0.00136 ± 0.00023 s⁻¹			0.000198 ± 5e-05 s⁻¹	6340 ± 3000 µM
AUAAAAGCGCCAGAACUACAGAAAUGUAGUUGACGAGGAGGAGGUUUAUCGAAUUUUCGGCAGAUGCCGCCAAA [G62A U69G]	3.25e-05 ± 8.9e-06 s⁻¹	3.47e-05 ± 1.6e-05 s⁻¹				3.57e-05 ± 1.7e-05 s⁻¹	
AUAAAAGCGCCAGAACUACAGAAAUGUAGUUGACGAGGAGGAGGUUUAUCGAAUUUUCGGCGGGUUCCUCCAAA [A64G G66U]	0.00159 ± 7.8e-05 s⁻¹	0.00102 ± 0.00034 s⁻¹	0.00143 ± 0.0003 s⁻¹		0.000178 ± 5.7e-05 s⁻¹	0.000588 ± 0.00016 s⁻¹	1210 ± 120 µM
AUAAAAGCGCCAGAACUACAGAAAUGUAGUUGACGAGGAGGAGGUAUAUCGAUUUUUCGGCGGAUGCCUCCAAA [U46A A53U]	0.00158 ± 0.00035 s⁻¹	0.000952 ± 0.00012 s⁻¹	0.00158 ± 0.00025 s⁻¹	5.78e-05 ± 1.1e-05 s⁻¹	0.000161 ± 3.2e-05 s⁻¹	0.000394 ± 5.6e-05 s⁻¹	1520 ± 540 µM
AUAAAAGCGCCUGAACUACAGAAAUGUAGUUGACGAGGAGAAGGUUUAUCGAAUUUUCGGCGGAUGCCUCCAAA [A12U G41A]	0.00189 ± 0.00051 s⁻¹	0.00213 ± 0.0004 s⁻¹	0.00216 ± 0.00028 s⁻¹	0.000183 ± 2e-05 s⁻¹	0.00038 ± 0.00011 s⁻¹	0.00073 ± 0.00014 s⁻¹	456 ± 210 µM
AUAAACGCGCCAGAACUACAGAAAUGUAGUUGACGAGGAGGAGGAUUAUCGAAUUUUCGGCGGAUGCCUCCAAA [A6C U45A]	0.000229 ± 1.7e-05 s⁻¹	8.34e-05 ± 2.8e-05 s⁻¹	0.000168 ± 2.1e-05 s⁻¹	< 1e-05 s⁻¹		3.95e-05 ± 1.9e-05 s⁻¹	3720 ± 750 µM
AUAAAAGCGCCAGAACUACAGAAAUGUAGUUGACGAGGACGAGGUUUAUCGAAUUUUCGGCGGAUGCCUCAAAA [G40C C71A]	0.00654 ± 0.0028 s⁻¹		0.00527 ± 0.00096 s⁻¹	0.000225 ± 3.8e-05 s⁻¹	0.000451 ± 6.2e-05 s⁻¹	0.00213 ± 0.00024 s⁻¹	
AUAAAAGCGCCAGAACUACAGAAAUGUAGUUUACGAGGAGAAGGUUUAUCGAAUUUUCGGCGGAUGCCUCCAAA [G32U G41A]	0.000221 ± 1.2e-05 s⁻¹	7.3e-05 ± 1.5e-05 s⁻¹	0.00015 ± 1.4e-05 s⁻¹			2.98e-05 ± 1.1e-05 s⁻¹	4720 ± 590 µM
AUAAAAGCGCCAGACCUACAGAAAUGUAGCUGACGAGGAGGAGGUUUAUCGAAUUUUCGGCGGAUGCCUCCAAA [A15C U30C]	0.000215 ± 7.8e-05 s⁻¹	8.21e-05 ± 1.5e-05 s⁻¹	0.000177 ± 2.6e-05 s⁻¹			8.27e-05 ± 2.3e-05 s⁻¹	
AUAAAAGCGCCAGAACUACAGAAAUGUAGUUGACGAGGGGGAGGUUUAUCGAAAUUUCGGCGGAUGCCUCCAAA [A39G U54A]	0.0133 ± 0.0029 s⁻¹		0.018 ± 0.0076 s⁻¹	0.00173 ± 0.00037 s⁻¹		0.00823 ± 0.0019 s⁻¹	282 ± 100 µM
AUAAAAGCGCCAGAACUACAGAAAUGUAGUUGUCGAUGAGGAGGUUUAUCGAAUUUUCGGCGGAUGCCUCCAAA [A33U G37U]	< 1e-05 s⁻¹				< 1e-05 s⁻¹		
AUAAAAGCGCCAGAACUACAGAAAUGUAGUUGACGAGGAGGUGGUUAAUCGAAUUUUCGGCGGAUGCCUCCAAA [A42U U47A]	0.00012 ± 2.9e-06 s⁻¹	8.23e-05 ± 1.3e-05 s⁻¹	0.000106 ± 1.7e-05 s⁻¹			4.11e-05 ± 1.2e-05 s⁻¹	1210 ± 91 µM
AUAAAAGCGCCAGAACUACAGAAAUGUAGUUGACGACGAGGAGGUUUAUCGAUUUUUCGGCGGAUGCCGCCAAA [G37C A53U U69G]	3.72e-05 ± 1.7e-05 s⁻¹	6.4e-05 ± 2.4e-05 s⁻¹				3.81e-05 ± 1.9e-05 s⁻¹	
AUAAAAGCGCCAGAACUACAGAAAUGUAGUUGACGAGAAGGAGGUUUAUCGAAUUAUCGGCGGAUGCCUCCAAA [G38A U56A]	< 1e-05 s⁻¹		< 1e-05 s⁻¹			< 1e-05 s⁻¹	52.5 ± 11 µM
